For one assay, the target named is Recombinant protein G. Kind of assay: optical weak value amplification (WVA) sensor; recombinant protein G (50 µg/mL, 30 min) immobilised on polydopamine on the prism, surface blocked; 10 µg/mL antibody (mouse IgG) injected at 30 µL/min for 120 min; PBS, 25 °C; reference channel with PBS subtracted; curves fitted with the intraparticle diffusion model.
The target in assay [1] is Mouse Immunoglobulin G (mouse). Nature of the assay: optical weak value amplification (WVA) sensor; oriented strategy: mouse IgG captured on immobilised protein G; 30 µg/mL protein L injected until the signal was saturated (120 min); 25 °C.

Consider Mouse Immunoglobulin G (antibody), for which, in the assay with Recombinant protein G, the Kid,1 (intraparticle diffusion rate constant, surface diffusion stage) was 454 a.u.min^−1/2; the Kid,2 (intraparticle diffusion rate constant, intraparticle diffusion stage) amounted to 239 a.u.min^−1/2; the Kid,3 (intraparticle diffusion rate constant, intraparticle diffusion stage) was determined as 83.9 a.u.min^−1/2; the fold antibody immobilised, against random immobilisation on polydopamine worked out at 2.27 fold.

As for Recombinant protein L, in assay [1], the fold binding sites, against randomly immobilised IgG came to 1.59 times.

For the origin of these results see paper PMC12157903.
